Measured values as given in patent publication US20210238276A1 (INTEGRAL MOLECULAR, published 2021).
Residue numbers refer to the chain shown, from its start.

What was measured:
Test in all cases: flow cytometry, alanine-scan library in HEK-293T, with cytochalasin B
hsGLUT4 Y309A = biological target: T1, hsGLUT4 Y309A (human, UniProt P14672 1-509)
T1 sequence: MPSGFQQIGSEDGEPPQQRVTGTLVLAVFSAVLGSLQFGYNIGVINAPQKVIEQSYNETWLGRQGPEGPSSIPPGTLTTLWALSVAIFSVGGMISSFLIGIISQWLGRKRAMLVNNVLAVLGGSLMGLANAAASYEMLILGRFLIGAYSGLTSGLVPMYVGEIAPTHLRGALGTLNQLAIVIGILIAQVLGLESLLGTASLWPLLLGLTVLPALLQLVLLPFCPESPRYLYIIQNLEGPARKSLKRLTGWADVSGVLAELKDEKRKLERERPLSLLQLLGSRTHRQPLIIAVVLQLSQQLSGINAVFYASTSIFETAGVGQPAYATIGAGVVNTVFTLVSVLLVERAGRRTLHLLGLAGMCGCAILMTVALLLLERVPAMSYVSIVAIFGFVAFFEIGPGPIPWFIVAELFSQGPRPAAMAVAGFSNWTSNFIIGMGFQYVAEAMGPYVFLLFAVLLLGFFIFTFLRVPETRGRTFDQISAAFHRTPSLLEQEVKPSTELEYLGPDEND
Summary of the method: (§1)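 HEK-293T cells expressing individual GLUT4 alanine mutants were stained 48 h post-transfection with anti-GLUT4 scFv MAbs (2 μg/ml), then biotinylated secondary and streptavidin-PerCP, and read by high-throughput flow cytometry. Where used, cytochalasin B (10 uM final) was given for 30 min before and during primary antibody staining.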

hsGLUT4 G414A = biological target: T2, hsGLUT4 G414A (human, UniProt P14672 1-509)
T2 sequence: T1 sequence with A309Y, G414A
Summary of the method: as §1

hsGLUT4 M112A = biological target: T3, hsGLUT4 M112A (human, UniProt P14672 1-509)
T3 sequence: T1 sequence with M112A, A309Y
Summary of the method: as §1

hsGLUT4 L61A = biological target: T4, hsGLUT4 L61A (human, UniProt P14672 1-509)
T4 sequence: T1 sequence with L61A, A309Y
Summary of the method: as §1

B1: AB102 (Fc fusion)
scFv: ALTQPSSVSANLGGTVKITCSGGGSYGYGWYQQKSPGSAPVTVIYSNDQRPSDIPSRFSGSKSGSTATLTITGVRAEDEAIYYCGSTDSDYVGIFGAGTTLTVLGQSSRSSGGGGSSGGGGSAVTLDESGGGLQTPGGTLSLVCKASGFDFSSYATIWVRQAPGKGLEWVAGISGTGTGSSTGYAPAVKGRATISRDNGQSTVRLQLNNLRAEDTGSYFCAKSTGYGDSWIYPDSIDAWGHGTEVIVSS
notes: also called MAb AB102; not shown: Fc fragment of human IgG1, cloned in frame with the scFv
B1 was tested, and the “% of binding to wild type GLUT4” value (hsGLUT4 Y309A) was 24%, the “% of binding to wild type GLUT4” value (hsGLUT4 G414A) was 23% and the “% of binding to wild type GLUT4” value (hsGLUT4 M112A) was 23%. For the same binder, the “% of binding to wild type GLUT4” value (hsGLUT4 L61A) was 69%.
